Article PMC12772958

Biological target: PLEKHO2
Test: BioID in situ proximity labelling, streptavidin pulldown, mass spectrometry (LFQ)
Conditions: U937 stable cell lines; biotin 24 h; n=3; read off a plot

BirA*–MYO1F tail (from UniProt O00160) K770A; R780A
enrichment: 5.2
